What was measured:
[1] = system: Isw1b complex (Isw1, Ioc2, Ioc4) (Saccharomyces cerevisiae); assay: EMSA; conditions: peptide-ligated H3 (T45C), 5% native PAGE (37.5:1) in 0.4x TBE, 2% glycerol, binding buffer, pH and temperature not given (as in …)
Ioc4 PWWP domain [2] = biological target: T1, Ioc4 PWWP domain (Saccharomyces cerevisiae, UniProt Q04213 1-178); assay: EMSA; conditions: 5% native PAGE (37.5:1) in 0.4x TBE, 2% glycerol, binding buffer, pH and temperature not given (as in …)
T1 sequence: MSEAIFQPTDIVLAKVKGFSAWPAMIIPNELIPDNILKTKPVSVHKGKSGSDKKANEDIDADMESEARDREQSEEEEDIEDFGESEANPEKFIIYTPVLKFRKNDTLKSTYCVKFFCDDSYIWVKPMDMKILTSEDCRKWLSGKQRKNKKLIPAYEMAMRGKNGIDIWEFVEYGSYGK

Ioc4 full-length [3] = biological target: T2, Ioc4 full-length (Saccharomyces cerevisiae, UniProt Q04213 1-475); assay: EMSA; conditions: 5% native PAGE (37.5:1) in 0.4x TBE, 2% glycerol, binding buffer, pH and temperature not given (as in …)
T2 sequence: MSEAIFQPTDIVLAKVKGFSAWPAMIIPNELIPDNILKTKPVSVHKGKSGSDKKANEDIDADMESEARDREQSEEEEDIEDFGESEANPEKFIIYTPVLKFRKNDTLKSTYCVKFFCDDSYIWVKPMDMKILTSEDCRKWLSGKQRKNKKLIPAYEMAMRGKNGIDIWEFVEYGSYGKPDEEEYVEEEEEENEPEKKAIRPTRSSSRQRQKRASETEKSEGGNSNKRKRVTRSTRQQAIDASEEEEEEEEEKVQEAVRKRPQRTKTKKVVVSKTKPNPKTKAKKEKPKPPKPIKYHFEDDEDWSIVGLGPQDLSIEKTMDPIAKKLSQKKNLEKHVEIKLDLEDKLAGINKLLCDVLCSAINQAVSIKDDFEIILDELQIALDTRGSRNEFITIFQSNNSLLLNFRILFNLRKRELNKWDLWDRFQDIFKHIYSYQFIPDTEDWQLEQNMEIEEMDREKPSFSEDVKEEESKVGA

Ioc4 PWWP domain [4] = biological target: T1, Ioc4 PWWP domain; assay: EMSA; EMSA; 15 fmol NCP (30 fmol unmodified NCP) per reaction; 5% native PAGE (37.5:1) in 0.4x TBE, 2% glycerol; binding buffer, pH and temperature not given (as in cited work); conditions: protein: recombinant; tags: N-terminal 6xHis; label: Cy5 on sense strand; blunt
Ioc4 full-length [5] = biological target: T2, Ioc4 full-length; assay: as above; conditions: protein: recombinant; tags: N-terminal 6xHis-MBP; label: Cy5 on sense strand; blunt
Ioc4 PWWP domain [6] = biological target: T1, Ioc4 PWWP domain; assay: EMSA; bound equally to the AT-rich substrate; EMSA; 15 fmol NCP (30 fmol unmodified NCP) per reaction; 5% native PAGE (37.5:1) in 0.4x TBE, 2% glycerol; binding buffer, pH and temperature not given (as in cited work); conditions: protein: recombinant; tags: N-terminal 6xHis; label: Cy5 on sense strand; blunt
[7] = peptide-ligated H3 (T45C), K36me0, 15 fmol NCP (30 fmol unmodified NCP) per reaction
[8] = peptide-ligated H3 (T45C), K36me3, 15 fmol NCP (30 fmol unmodified NCP) per reaction
[9] = 15 fmol NCP (30 fmol unmodified NCP) per reaction

## NCP H3K36me0, 147 bp 601
[1]; K36me0, 15 fmol NCP (30 fmol unmodified NCP) per reaction
  Kd: 0.0573 µM
Ioc4 PWWP domain [2]; [7]
  Kd: 0.4 µM
Ioc4 full-length [3]; [7]
  Kd: 0.011 µM

## NCP H3K36me3, 147 bp 601
[1]; K36me3, 15 fmol NCP (30 fmol unmodified NCP) per reaction
  Kd: 0.0048 µM
Ioc4 PWWP domain [2]; [8]
  Kd: 0.12 µM
Ioc4 full-length [3]; [8]
  Kd: 0.0067 µM

## NCP unmodified, 147 bp 601
Ioc4 PWWP domain [2]; unmodified histones, 15 fmol NCP (30 fmol unmodified NCP) per reaction
  Kd: 0.45 µM

## RNA:DNA hybrid
Ioc4 PWWP domain [2]; [9]
  Kd: 0.76 µM
Ioc4 full-length [3]; [9]
  Kd: 0.055 µM

B1: dsRNA 30 bp (AT rich) (dsRNA)
RNA 1: GGCAAGGUCGCUGUUCAAUACAUGCACAGG
RNA 2: CCUGUGCAUGUAUUGAACAGCGACCUUGCC
Ioc4 PWWP domain [4]
  Kd: 1.8 µM
Ioc4 full-length [5]
  Kd: 0.056 µM

B2: dsDNA 30 bp (601-derived EMSA probe) (dsDNA)
DNA 1: GGCAAGGTCGCTGTTCAATACATGCACAGG
DNA 2: CCTGTGCATGTATTGAACAGCGACCTTGCC
Ioc4 PWWP domain [4]
  Kd: 0.81 µM
Ioc4 full-length [5]
  Kd: 0.034 µM

B3: dsRNA 25 bp GC rich (dsRNA)
RNA 1: CCCGGUGCCGAGGCCGCUCAAUUGG
RNA 2: CCAAUUGAGCGGCCUCGGCACCGGG
Ioc4 PWWP domain [6]
  binding result: binds

Source: paper PMC8934638, “H3K36 methylation and DNA-binding both promote Ioc4 recruitment and Isw1b remodeler function”
